Measurements taken from paper PMC9863245, “A Putative New Role of Tv-PSP1 Recognizes IRE and ERE Hairpin Structures from Trichomonas vaginalis”.

T1: Tv-PSP1 (Trichomonas vaginalis, UniProt A2DAL5 1-124)
T1 sequence: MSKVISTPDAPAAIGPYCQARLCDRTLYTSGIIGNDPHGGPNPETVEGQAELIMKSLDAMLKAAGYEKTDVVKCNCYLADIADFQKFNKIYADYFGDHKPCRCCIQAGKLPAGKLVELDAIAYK


Assays:
[1] = target: Tv-PSP1, perchloric-acid-soluble protein (PSP) from Trichomonas vaginalis (Trichomonas vaginalis); test: crystal structure; recombinant Tv-PSP1 20 mg/mL in 25 mM Tris-HCl pH 7.4, 150 mM NaCl, 1 mM DTT; sitting-drop vapor diffusion at 18 °C; space group P63, 1.95 Å; trimers built from the same monomer of different asymmetric units, interfaces analysed with PISA
Tv-PSP1 = target: T1, Tv-PSP1; test: EMSA; 3 mM Mg2+; REMSA: 50 mM Tris-HCl, 75 mM KCl, 3 mM MgCl2, 10 mM DTT, 37 C, 30 min, pH not stated; 100 ug protein, 1 ug RNA; 1.7% agarose; conditions: protein: recombinant; chain copies: 3; hairpin

Molecule	stoichiometry N [1]	binding result (Tv-PSP1)
Tv-PSP1, perchloric-acid-soluble protein (PSP) from Trichomonas vaginalis (natural protein)	3	
GGGGUUUAGAAUUUCCAAUAA (structured_RNA) [ERE-like (tvcp39 3' UTR)]		binds
